Results taken from patent US20210269525A1 (BIOCYTOGEN PHARMACEUTICALS BEIJING, published 2021).

T1: Cynomolgus CD3 epsilon Protein, His Tag (Acrobiosystems, Cat #CDE-05226) (cynomolgus (Macaca fascicularis), UniProt Q95LI5 22-117)
T1 construct: also called monkey CD3e; not shown: His tag
T1 sequence: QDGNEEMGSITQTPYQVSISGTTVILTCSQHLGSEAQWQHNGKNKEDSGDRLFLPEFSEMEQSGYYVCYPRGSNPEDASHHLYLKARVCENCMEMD

B1: 1B1-H2K2-IgG1-LALA (antibody, V domains shown)
VH: QVQLVQSGAEVKKPGASVKLSCKASGYTFTSYWMHWVRQAPGQGLEWIGNIYPDSGTTNYGEKFKTRVTLTVDTSTSTAYMELSSLRSEDTAVYYCTRDTSGQYYFDYWGQGTLVTVSS
VL: DIVMTQSPDSLAVSAGERVTMNCKSSQSLLNSRTRKNYLAWYQHKPGQSPKLLIYWASTRESGVPDRFSGSGSGTDFTLTISSLQAEDVAVYYCVQSFSLRAFGGGTKVEIK
notes: Humanized; human IgG1 with LALA mutations; also called H2K2 (humanized 1B1)
B2: 1B1-H1K1-IgG1-LALA (antibody, V domains shown)
VH: QVQLVQSGAEVKKPGASVKVSCKASGYTFTSYWMHWVRQAPGQGLEWIGNIYPDSGTTNYGEKFKTRVTLTVDTSTSTAYMELSSLRSEDTAVYYCTRDTSGQYYFDYWGQGTLVTVSS
VL: DIVMTQSPDSLAVSAGERATMNCKSSQSLLNSRTRKNYLAWYQHKPGQSPKLLIYWASTRESGVPDRFSGSGSGTDFTLTISSLQAEDVAVYYCVQSFSLRAFGGGTKVEIK
notes: Humanized; human IgG1 with LALA mutations; also called H1K1 (humanized 1B1)
B3: 1B1-H1K3-IgG1-LALA (antibody, V domains shown)
VH: QVQLVQSGAEVKKPGASVKVSCKASGYTFTSYWMHWVRQAPGQGLEWIGNIYPDSGTTNYGEKFKTRVTLTVDTSTSTAYMELSSLRSEDTAVYYCTRDTSGQYYFDYWGQGTLVTVSS
VL: DIVMTQSPDSLAVSAGERVTMNCKSSQSLLNSRTRKNYLAWYQHKPGQSPKLLIYWASTRESGVPDRFSGSGSGTDFTLTISSVQAEDVAVYYCVQSFSLRAFGGGTKLEIK
notes: Humanized; human IgG1 with LALA mutations; also called H1K3 (humanized 1B1)
B4: 1B1-H2K1-IgG1-LALA (antibody, V domains shown)
VH: QVQLVQSGAEVKKPGASVKLSCKASGYTFTSYWMHWVRQAPGQGLEWIGNIYPDSGTTNYGEKFKTRVTLTVDTSTSTAYMELSSLRSEDTAVYYCTRDTSGQYYFDYWGQGTLVTVSS
VL: DIVMTQSPDSLAVSAGERATMNCKSSQSLLNSRTRKNYLAWYQHKPGQSPKLLIYWASTRESGVPDRFSGSGSGTDFTLTISSLQAEDVAVYYCVQSFSLRAFGGGTKVEIK
notes: Humanized; human IgG1 with LALA mutations; also called H2K1 (humanized 1B1)
B5: 1B1-H4K3-IgG1-LALA (antibody, V domains shown)
VH: QVQLVQSGAEVVKPGASVKLSCKASGYTFTSYWMHWVRQRHGQGLEWIGNIYPDSGTTNYGEKFKTRGTLTVDTSTSTAYMELSSLRSEDTAVYYCTRDTSGQYYFDYWGQGTLVTVSS
VL: DIVMTQSPDSLAVSAGERVTMNCKSSQSLLNSRTRKNYLAWYQHKPGQSPKLLIYWASTRESGVPDRFSGSGSGTDFTLTISSVQAEDVAVYYCVQSFSLRAFGGGTKLEIK
notes: Humanized; human IgG1 with LALA mutations; also called H4K3 (humanized 1B1)
B6: 1B1-H4K2-IgG1-LALA (antibody, V domains shown)
VH: QVQLVQSGAEVVKPGASVKLSCKASGYTFTSYWMHWVRQRHGQGLEWIGNIYPDSGTTNYGEKFKTRGTLTVDTSTSTAYMELSSLRSEDTAVYYCTRDTSGQYYFDYWGQGTLVTVSS
VL: DIVMTQSPDSLAVSAGERVTMNCKSSQSLLNSRTRKNYLAWYQHKPGQSPKLLIYWASTRESGVPDRFSGSGSGTDFTLTISSLQAEDVAVYYCVQSFSLRAFGGGTKVEIK
notes: Humanized; human IgG1 with LALA mutations; also called H4K2 (humanized 1B1)

What was measured:
[1] = target: T2, Histidine-tagged human CD3e protein (human, UniProt P07766 23-126); assay: SPR (Biacore), human CD3e
T2 construct: also called hCD3e-His; not shown: His tag

[2] = target: T3, human CD3e (T-cell surface glycoprotein CD3 epsilon chain) (human, UniProt P07766 23-207); assay: flow cytometry, human PBMC, antibody 0.1 µg/mL, anti-human IgG Fc-Alexa Fluor647 (1:500), anti-hTcRβ-PerCP (1:30)
T3 construct: Target of the anti-hCD3e antibodies on human PBMC, Jurkat cells and cells expressing human CD3e; on T cells it is part of the CD3/TCR complex; also called hCD3e; CD3e on human PBMC
Method: (§1) PBMC cells were collected from a human subject. After being thawed, the cells were cultured for 3-4 hours. The medium was then discarded, and the cells were resuspended in phosphate-buffered saline (PBS). The cell concentration was then adjusted to 2×10⁶/25 μl PBS.
(§2) A 96-well plate was prepared. 25 ul of cell suspension was added to each well. […] The cells and the antibodies were incubated. After centrifuge, the residues were discarded. The samples were washed again. 25 ul of PBS was then added to each well to resuspend cells.
(§3) Anti-human IgG Fc-Alexa Fluror647 (1:500) and anit-hTcRβ PerCP (1:30) were then added to each well. The cells and the antibodies were incubated and then the cells were washed again by PBS. 300 ul of PBS was then added to each well to resuspend the cells. FACS was performed.

[3] = target: T3, human CD3e (T-cell surface glycoprotein …); assay: flow cytometry, human PBMC, antibody 1 µg/mL, anti-human IgG Fc-Alexa Fluor647 (1:500), anti-hTcRβ-PerCP (1:30)
Method: as §1, §2, §3

[4] = target: T3, human CD3e (T-cell surface glycoprotein …); assay: flow cytometry, human PBMC, antibody 10 µg/mL, anti-human IgG Fc-Alexa Fluor647 (1:500), anti-hTcRβ-PerCP (1:30)
Method: as §1
A 96-well plate was prepared. 25 ul of cell suspension was added to each well. Anti-hCD3e antibodies with different combinations of humanized 1B1 heavy chain variants and humanized 1B1 light chain variants were diluted to 20 ug/ml (2×) in PBS, and were added to the 96-well plate. The cells and the antibodies were incubated. After centrifuge, the residues were discarded. The samples were washed again. 25 ul of PBS was then added to each well to resuspend cells.
as §3

[5] = target: T3, human CD3e (T-cell surface glycoprotein …); assay: cell-based or functional assay
[6] = target: T1, Cynomolgus CD3 epsilon Protein, His Tag …; assay: SPR (Biacore), cynomolgus CD3e His tag
Method: The binding affinity of the anti-hCD3e antibodies with monkey CD3e (Cynomolgus CD3 epsilon Protein (SEQ ID NO: 39 AA Gln 22-Asp 117), His Tag, Acrobiosystems, Cat #CDE-05226) were also measured using surface plasmon resonance (SPR) using Biacore (Biacore, INC, Piscataway N.J.) by the methods as described in the examples.

[7] = target: T4, monkey CD3e (Macaca fascicularis) on PBMC (Macaca fascicularis, UniProt Q95LI5 22-198); assay: flow cytometry, Macaca fascicularis PBMC, antibody concentration not given, anti-human IgG Fc-Alexa Fluor647 (1:500), anti-hTcRβ-PerCP (1:30)
T4 construct: Target on PBMC from Macaca fascicularis; also called mfCD3e; monkey PBMC
T4 sequence (Q95LI5 22-198 limits assumed): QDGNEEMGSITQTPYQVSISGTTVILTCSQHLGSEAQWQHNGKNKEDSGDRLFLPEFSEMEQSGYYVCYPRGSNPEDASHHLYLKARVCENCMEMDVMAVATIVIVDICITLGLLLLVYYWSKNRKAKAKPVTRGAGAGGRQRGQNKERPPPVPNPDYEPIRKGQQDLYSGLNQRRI
Summary of the method: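 Cynomolgus PBMC incubated with anti-hCD3 antibodies 15 min at 4° C, washed in PBS. Bound antibody detected with anti-human IgG Fc-Alexa Fluor647 (1:500) plus anti-hTcRβ-PerCP (1:30), 15 min at 4° C, then washed and analysed by flow cytometry.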

Binder	Kd [1] [nM]	koff [1] [s⁻¹]	kon [1] [M⁻¹ s⁻¹]	upper left quadrant, percent of cells AF647+ / hTcRβ-PerCP- [2] [%]	upper right quadrant, percent of cells AF647+ / hTcRβ-PerCP+ [2] [%]	upper left quadrant, percent of cells AF647+ / hTcRβ-PerCP- [3] [%]	upper right quadrant, percent of cells AF647+ / hTcRβ-PerCP+ [3] [%]	upper left quadrant, percent of cells AF647+ / hTcRβ-PerCP- [4] [%]	upper right quadrant, percent of cells AF647+ / hTcRβ-PerCP+ [4] [%]	EC50, luciferase of Jurkat-Luc-NFAT cells; antibody from supernatant [5] [µg/mL]	Kd [6] [nM]	koff [6] [s⁻¹]	kon [6] [M⁻¹ s⁻¹]	upper left quadrant, percent of cells AF647+ / hTcRβ-PerCP- [7] [%]	upper right quadrant, percent of cells AF647+ / hTcRβ-PerCP+ [7] [%]
B1	1.65	0.000881	535000	14.1	47.1	10.2	61	9.49	63.3	> 5.24	6.66	0.000665	99800	84.5	11.1
B2	1.42	0.000621	438000	11.9	54.8	12	58	8.68	61.6	1.42	9.51	0.000869	91400	69.5	26.2
B3	3.28	0.00051	155000	13.9	50	11	58.6	10.5	60	> 6.94	4.39	0.000739	169000	83.3	13.6
B4	1.49	0.000862	579000	9.82	59.2	10.8	61.5	8.53	65.4	> 2.79	7.03	0.000999	142000	71	25.6
B5	1.16	0.000583	502000	11.9	54.7	10.2	61.9	10.7	62.4	> 4.54	–	–	–	87.1	10.1
B6	0.959	0.000614	640000	12.6	54	10.4	61.7	11	59.7	> 3	–	–	–	73.2	24.4
